The target in one experiment is T1, mouse PD-L1 Fc (mouse, UniProt Q9EP73 19-238).
T1 construct: Plate-coated reagent; not shown: Fc part
As to the kind of experiment: competition ELISA, peptide at 3 and 10 uM against mouse PD-1 Fc on coated mouse PD-L1 Fc (FIG. 9A). On the procedure:
More specifically, mouse and human WT and TF peptides (3 and 10 μM) were mixed with recombinant mouse PD-1 Fc and bound to a mouse PD-L1 Fc coated 96-well Immuno Maxisorp flat bottom plate. Binding was detected via a biotinylated anti-mouse PD-1 antibody, streptavidin-horseradish peroxidase (HRP), and 3,3′, 5,5′ Tetramethylbenzidine (TMB) substrate. Absorbance measurements were collected at 450 nm via a plate reader. The increased percent (%) of mouse (and human) PD-1/PD L1 inhibition was compared to a control (no peptide) sample. […] The differences between the human and mouse peptides are illustrated in FIG. 9B.
For orientation: ELISA stands for enzyme-linked immunosorbent assay.

Experiment [1] has as its target T2, recombinant human PD-L1 Fc (human, UniProt Q9NZQ7 19-239).
T2 construct: Recombinant reagent; not shown: Fc part
Briefly: summary of the examples (competition ELISA, peptide array).

Experiment [2] addresses T2, recombinant human PD-L1 Fc. As to the kind of experiment: competition ELISA, peptides and combinations at 3 and 10 uM against human PD-1 Fc on coated human PD-L1 Fc (FIG. 5A).

T2 sequence (Q9NZQ7 19-239 limits assumed): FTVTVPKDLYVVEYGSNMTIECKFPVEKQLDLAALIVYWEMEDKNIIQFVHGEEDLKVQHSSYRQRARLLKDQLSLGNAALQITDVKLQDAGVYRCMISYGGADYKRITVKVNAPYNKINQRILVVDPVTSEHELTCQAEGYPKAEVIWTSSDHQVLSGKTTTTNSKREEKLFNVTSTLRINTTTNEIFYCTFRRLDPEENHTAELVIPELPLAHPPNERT
T1 sequence (Q9EP73 19-238 limits assumed): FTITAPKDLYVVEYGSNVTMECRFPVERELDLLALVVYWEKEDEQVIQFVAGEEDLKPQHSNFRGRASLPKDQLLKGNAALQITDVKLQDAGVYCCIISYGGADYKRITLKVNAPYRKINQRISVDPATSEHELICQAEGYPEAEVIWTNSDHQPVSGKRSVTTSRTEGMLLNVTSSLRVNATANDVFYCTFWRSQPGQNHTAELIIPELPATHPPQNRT

In the case of WNRLSPSNQT [Mouse WT peptide (SEQ ID NO:35, WNRLSPSNQT)], in the experiment with mouse PD-L1 Fc, the binding result is listed as “binds”.

TRYPSPSPKPEGRF [Mouse TF peptide (SEQ ID NO:36, TRYPSPSPKPEGRF)]: the binding result in the experiment with mouse PD-L1 Fc was “binds”.

B1: WT peptide (SEQ ID NO:1, WYRMSPSNQT) (peptide)
peptide: WYRMSPSNQT
notes: Chemically synthesized peptide found by a peptide array method; also called human WT peptide
For the molecule B1, the binding result in experiment [1] is “binds”.

YYRMSPSNQT (A derivative of the WT peptide (W1Y)) [YT peptide (SEQ ID NO:28, YYRMSPSNQT)]: the binding result in experiment [2] is on record as “binds”.

Regarding EYRMSPSNQT (A derivative of the WT peptide (W1E)) [ET peptide (SEQ ID NO:25, EYRMSPSNQT)], the binding result in experiment [2] is on record as “binds”.

Source of the values: patent publication US20180141975A1 (VIROGIN BIOTECH CANADA, published 2018).
